Measurements reported in US11766444B2, “Pharmaceutical composition for preventing or treating degenerative brain disorders including HDL-APOM-S1P as active ingredient” (Kyungpook National University Industry-Academic Cooperation …, priority 2017, dated 2023).

What was measured:
Format in all cases: in vivo, mouse
[1] = S1P, ApoM, HDL-S1P and HDL-ApoM levels in plasma of APP/PS1 mice after HDL-ApoM-S1P loading; settings: i.v. 25 μl twice a week for 4 weeks (8 times), vs untreated APP/PS1 mice
Source text: (§1) Transgenic mice overexpressing hAPP695swe (APPswe) and presenilin-1M146V (PS1) mutations were used as mouse models of the Alzheimer's disease. These are mouse lines produced by GlaxoSmithKline (Harlow, UK) with the standard technology for C57BL background (Charles River, UK), which double heterozygote mutant mice (APP/PS1 tg mice) were produced by backcrossing APPswe mice with pure C57BL/6 backgrounds and crossing PS1 mice
(§2) After collecting blood from mice, the obtained blood was separated into erythrocytes and plasma by centrifugation. The separated erythrocytes are reacted with 10 uM sphingosine at 37° C. for 1 hour, and then reacted for 1 hour at 37° C. after mixing again with the separated plasma. After completion of the reaction, erythrocytes and plasma were separated by centrifugation, and only the plasma was collected again. The plasma thus obtained was loaded with S1P in HDL (HDL-ApoM-S1P loading), which was illustrated in FIG. 1.
The plasma solution thus obtained was intravenously injected 25 μl into mice twice a week for 4 weeks (total 8 times) according to the experimental outline shown in FIG. 2. As a control group, 3 μM S1P (Avanti) and […] ApoM (Mybiosource, SEQ ID NO: 1) were injected intravenously with 25 μl in mice twice a week for 4 weeks (eight times in total).
To collect blood from mouse models (APP/PS1 tg mice or APP/PS1/ApoM tg mice) and normal control mice (WT), the mice were anesthetized first, and 500 μl to 700 μl of blood were collected in heparin tubes (BD Falcon) by cardiac drawing. Each blood sample was then centrifuged at 1,200 rpm for 5 minutes to separate plasma from the supernatant. This plasma sample was stored at −80° C. before being used for analysis.
60 μl of plasma sample was placed in the ultrafast centrifuge tube, and then the same amount of PBS (Gibco) solution was added to form a layer on the plasma. A high speed centrifuge (HITACHI cp100wx Centrifuge P70AT rotor) was used to centrifuge at 70,000 rpm for 3 hours at 4° C. 60 μl of the lower layer of the sample separated into two layers was transferred into a new ultra-centrifuge tube. […]
Extraction and quantification of S1P was performed in the following manner. […] The dried lipid extract was resuspended in 25 μl of 0.2% Igepal CA-630 (Sigma-Aldrich), and the concentration level of each lipid was quantified by the UPLC system using the column ACQUITY BEH Shield RP18 1.7 μm 2.1×50 mm (186002853) and 0.1% of NH4OH.
Using a commercial ELISA kit (CUSABIO Human ApoM ELISA Kit and Mouse ApoM ELISA Kit), the amount of apolipoprotein M (ApoM) contained in the mouse plasma or HDL fractionated therefrom was quantified according to the manufacturer's protocol. […]

amyloid-β = experiment: Amyloid-β deposition in brain tissue (cerebral cortex), thioflavin S staining and immunofluorescence; settings: APP/PS1 mice, vs 9-month-old untreated APP/PS1 mice
Source text: as §1
(§3) After collecting blood from mice, the obtained blood was separated into erythrocytes and plasma by centrifugation. The separated erythrocytes are reacted with 10 uM sphingosine at 37° C. for 1 hour, and then reacted for 1 hour at 37° C. after mixing again with the separated plasma. […]
(§4) After fixing the cerebral (especially cortex) and hippocampus of mice with 4% paraformaldehyde, the immobilized tissues were incubated with 0.5% thioflavin S (Sigma-Aldrich) or anti-20G10 against Aβ42 (mouse, 1:1000), anti-G30 against Aβ40 (rabbit, 1:1000), anti-lba-1 (rabbit, 1:500, Wako), and anti-GFAP (rabbit, 1:500, DAKO), respectively. […] The sites were analyzed using a laser scanning confocal microscope or Olympus BX51 microscope equipped with Fluoview SV1000 imaging software (Olympus FV1000, Japan). Metamorph software (Molecular Devices) was used to quantify the percentage of area of stained area to area of total tissue. […]

microglia = experiment: Activity of microglia (Iba1 staining), neuroinflammatory response; settings: APP/PS1 mice, brain tissue, vs untreated APP/PS1 mice
Source text: as §1, §3, §4

tau = experiment: Tau deposition in brain tissue (AT8 immunofluorescence); settings: APP/PS1 mice, cerebral cortex, vs 9-month-old untreated APP/PS1 mice
Source text: as §1, §3, §4

astrocytes = experiment: Activity of astrocytes (GFAP staining), neuroinflammatory response; settings: APP/PS1 mice, brain tissue, vs untreated APP/PS1 mice
Source text: as §1, §3, §4

APP/PS1 mice = experiment: Morris water maze (MWM) test; settings: 10 days training, probe trial day 11
Source text: as §1, §2
The plasma solution thus obtained was intravenously injected 25 μl into mice twice a week for 4 weeks (total 8 times) according to the experimental outline shown in FIG. 2. […]
In order to identify potential effects on learning and memory, Morris water maze (MWM) and fear conditioning experiments were performed according to known methods. […] All experiments were recorded using a charge-coupled device (CCD) camera with video monitor and computer. […]

B1: ApoM: control, ApoM (Mybiosource, SEQ ID NO: 1) (protein)
chain: MFHQIWAALLYFYGIILNSIYQCPEHSQLTTLGVDGKEFPEVHLGQWYFIAGAAPTKEELATFDPVDNIVFNMAAGSAPMQLHLRATIRMKDGLCVPRKWIYHLTEGSTDLRTEGRPDMKTELFSSSCPGGIMLNETGQGYQRFLLYNRSPHPPEKCVEEFKSLTSCLDSKAFLLTPRNQEACELSNN
modifications: ApoM
- level of ApoM in plasma [1]: did not show a difference
- level of HDL-ApoM in the HDL fraction [1]: did not show a difference
- level of HDL-S1P in the HDL fraction [1]: did not show a difference
- level of S1P in plasma [1]: did not show a difference
- Aβ40 deposition in brain tissue (amyloid-β): did not show a significant difference
- Aβ42 deposition in brain tissue (amyloid-β): did not show a significant difference
- inflammatory activity of microglia (microglia): no significant difference
- tau deposition (AT8) in brain tissue (tau): did not show a significant difference
- inflammatory activity of astrocytes (astrocytes): no significant difference
- learning and memory (spatial memory formation), MWM (APP/PS1 mice): severe impairment
